The source of these data is the DeepSol protein solubility set.

The nature of this data set: soluble on expression in E. coli; label from the status in PepcDB or PDB records.
Regarding “MGSDKIHHHHHHNGDEKIDSGMVQQDGEVLQLNVRVGDFAINDVSSIRATDSGSTGTFENGDRIGIIVLDADNNVLSDNIPYRYDGNIWSFDSNNDEGKTTIYYDNKATVYLAYFPYSKEVDNVINIDDLKGKFLPQGDQRSKDAYRASDLLVWSDTSGRPLKKLDIVFEHAYSLLSLSPSIKCKINGRRDFTYVPSSISDVSFNVGTEPLFPYQMNDGSYQIIISPKRAKVRWLYEYNKEMYSGAMPDTDLSANTCYTFTPVLKDIGDYTLDKAQMGDFYCKDESNNGYLIPGDVTALSADMNCLGIVLKSGKDSEGEWVDYCKYKQKYGITEMHTVHGYVLALYDANGGNACTWGLWSLTDINRGEPSTGFYGYKNTQGIISFAENENRTLKNGFPPVYWVTDYEYSHPAPANSSGWFLPSLGQCWYWMYNKAYLLSAVNKATGDNDYGWKLGYWSSSEDDYDPFLNAYYADTYVGAMDWDYKNSKHCVRACLAF”, the “soluble on expression in E. coli” value is recorded as “not soluble”.

Turning to “GPLGSPQMAQGTLIRVTPEQPTHAVCVLGTLTQLDICSSAPEDCTSFSINASPGVVVDIAHSPPAKKKSTGSSTWPLDPGVEVTLTMKAASGSTGDQKVQISYYGPKTPPVKALLYLTAVEISLCADITRTGKVKPTRAVKDQRTWTWGPCGQGAILLVNCDRDNLESSAMDCEDDEVLDSEDLQDMSLMTLSTKTPKDFFTNHTLVLHVARSEMDKVRVFQATRGKLSSKCSVVLGPKWPSHYLMVPGGKHNMDFYVEALAFPDTDFPGLITLTISLLDTSNLELPEAVVFQDSVVFRVAPWIMTPNTQPPQEVYACSIFENEDFLKSVTTLAMKAKCKLTICPEEENMDDQWMQDEMEIGYIQAPHKTLPVVFDSPRNRGLKEFPIKRVMGPDFGYVTRGPQTGGISGLDSFGNLEVSPPVTVRGKEYPLGRILFGDSCYPSNDSRQMHQALQDFLSAQQVQAPVKLYSDWLSVGHVDEFLSFVPAPDRKGFRLLLASPRSCYKLFQEQQNEGHGEALLFEGIKKKKQQKIKNILSNKTLREHNSFVERCIDWNRELLKRELGLAESDIIDIPQLFKLKEFSKAEAFFPNMVNMLVLGKHLGIPKPFGPVINGRCCLEEKVCSLLEPLGLQCTFINDFFTYHIRHGEVHAGTNVRRKPFSFKWWNMVP”, the “soluble on expression in E. coli” value was “soluble”.

On to “ENIEVHMLNKGAEGAMVFEPAYIKANPGDTVTFIPVDKGHNVESIKDMIPEGAEKFKSKINENYVLTVTQPGAYLVKCTIHYAMGMIALIAVGDSPANLDQIVSAKKPKIVQERLEKVIASAK”, for which the “soluble on expression in E. coli” value was “soluble”.

For the sequence “MSLSRLLNDFNQSLKKGFIDKDISHKGNYTPKLLVNNKNEKVLSTIIDELQKCETFYFSVAFITESGLASLKAQLLDLSNKGVKGKILTSNYLGFNSPKMYGELLKLKNVEVRLTDIAGFHAKGYIFEHKDYSSMVIGSSNLTSNALKVNYEHNVLLSTMKNGDLVDSVKNEFELLWQKSTPLTEQWINSYKESFEYRSLEKLAEVEQTQMLLADKVKKSVEIVPNLMQAEALRSLKAIRDKTKDKALIISATGTGKTILCALDVREVNPNKFLFIVHNEGILNRAKEEFKKVLPIKNDSDFGLLTGKHRDVDAKYLFATIQTLSRDDNFKQFDENEFDYIVFDEAHRSAASTYQRVFNYFKPKFMLGMTATPERSDELSIFELFDYNIAYEIRLQAALESDILCPFHYFGVTDYVHQGIKEDDVTKLRYLTSDERVNYIIQKTDEGHHHHHH”, the “soluble on expression in E. coli” value is listed as “not soluble”.

In the case of “SGAVTDDEVIRKRLLIDGDGAGDDRRINLLVKSFIKWCNSGSQEEGYSQYQRMLSTLSQCEFSMGKTLLVYDMNLREMENYEKIYKEIECSIAGAHEKIAECKKQILQAKRIRKNRQEYDALAKVIQHHPDRHETLKELEALGKELEHLSHIKESVEDKLELRRKQFHVLLSTIHELQQTLENDEKLSEVEEAQEASMETDPKP”, the “soluble on expression in E. coli” value is listed as “soluble”.

As for “MAHHHHHHMRKKMKTLHLTGKKNFLFQNMQLRLYKEAPPKVFNKKSSHSSLWIQRQITDRYVLKAKNDNYRSRAAYKLIELDNKYMFLKKNKTILDIGCYPGSWCQVILERTKNYSNEIIGIDKKIMDPLPNIHFIHAEIGGAKDNPNDSNLVDVKLREILQGKKVDIILSDAAVPCVGNKIDDHMNSCELTLGITNFMEQYINMGGTYVVKMYLGSQTDNLKTYLKTIFQFVNTTKPKASRRESREIYLVCRNFLGRKKIGEDVQVKGAFSLKEGYY”, the “soluble on expression in E. coli” value was “not soluble”.
